For 1 substance, % positive (CD79b CAR+ NK cells) results are on record in patent US20230174651A1.

Assay [1] deals with CD79b CAR with CD8α hinge as the spacer. Nature of the assay: flow cytometry, NK cell line-2 transduced with CD79b CAR construct 137LH at MOI 20, AF647-CD79b at 1 µg/ml; same gate on untransduced (UTD) cells 0.32. (In general: A flow cytometer gives signals particle by particle.)
Target sequence (P01732 138-182): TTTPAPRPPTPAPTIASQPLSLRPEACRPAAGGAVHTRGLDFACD
The target is the same in assay [2]. Nature of the assay: flow cytometry, NK cell line-1 transduced with CD79b CAR construct 441HL at MOI 5, AF647-CD79b at 1 µg/ml; same gate on untransduced (UTD) cells 0.23.
Assay [3] shares this target. Briefly: flow cytometry, NK cell line-2 transduced with CD79b CAR construct 137LH at MOI 5, AF647-CD79b at 1 µg/ml; same gate on untransduced (UTD) cells 0.32.
The target is the same in assay [4]. Nature of the assay: flow cytometry, NK cell line-2 transduced with CD79b CAR construct 441HL at MOI 20, AF647-CD79b at 1 µg/ml; same gate on untransduced (UTD) cells 0.32.
The target is the same in assay [5]. Briefly: flow cytometry, NK cell line-2 transduced with CD79b CAR construct 441HL at MOI 5, AF647-CD79b at 1 µg/ml; same gate on untransduced (UTD) cells 0.32.
Assay [6] has the same target. Briefly: flow cytometry, NK cell line-1 transduced with CD79b CAR construct 137LH at MOI 20, AF647-CD79b at 1 µg/ml; same gate on untransduced (UTD) cells 0.23.
Assay [7] has the same target. Briefly: flow cytometry, NK cell line-1 transduced with CD79b CAR construct 137LH at MOI 5, AF647-CD79b at 1 µg/ml; same gate on untransduced (UTD) cells 0.23.
For assay [8] the target is unchanged. Briefly: flow cytometry, NK cell line-1 transduced with CD79b CAR construct 441HL at MOI 20, AF647-CD79b at 1 µg/ml; same gate on untransduced (UTD) cells 0.23.

AF647-CD79b, sequence (P40259 29-159 limits assumed): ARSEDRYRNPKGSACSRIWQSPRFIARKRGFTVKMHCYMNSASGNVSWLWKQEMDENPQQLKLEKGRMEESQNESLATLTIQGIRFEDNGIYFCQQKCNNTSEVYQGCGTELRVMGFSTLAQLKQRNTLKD

As for “AF647-CD79b (from UniProt P40259 29-159)”, the % positive (CD79b CAR+ NK cells) in assay [1] was 71.2%; in assay [2], 69.9%; in assay [3], 47.4%; in assay [4], 85.2%; in assay [5], 72.2%; in assay [6] it was 74.5%. Besides, the % positive (CD79b CAR+ NK cells) in assay [7] turned out to be 67.1%; in assay [8], 80.8%.
